Measured values: US20260055180A1

Biological target: murine DLL3.HIS (IPA custom, amino acid 25-477) (mouse) (UniProt O88516)
Test: BLI (Octet), captured on AHC sensor, antigen in solution

Sequence of murine DLL3.HIS (IPA custom, amino acid 25-477) (mouse) (O88516 25-477 limits assumed, form in doubt): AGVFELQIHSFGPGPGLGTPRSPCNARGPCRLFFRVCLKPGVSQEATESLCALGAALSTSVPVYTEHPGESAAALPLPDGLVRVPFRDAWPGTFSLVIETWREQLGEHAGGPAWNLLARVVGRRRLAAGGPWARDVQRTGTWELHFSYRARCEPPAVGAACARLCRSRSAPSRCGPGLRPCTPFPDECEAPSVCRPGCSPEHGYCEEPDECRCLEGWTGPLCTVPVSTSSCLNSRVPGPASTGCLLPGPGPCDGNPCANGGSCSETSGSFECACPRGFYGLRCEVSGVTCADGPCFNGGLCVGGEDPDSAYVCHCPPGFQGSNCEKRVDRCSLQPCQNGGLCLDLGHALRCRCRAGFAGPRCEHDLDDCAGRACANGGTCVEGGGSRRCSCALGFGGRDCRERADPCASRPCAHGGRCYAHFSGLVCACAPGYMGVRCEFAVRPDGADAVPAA

B1: DLL3 VHH (Fc fusion, not shown: small tags and cut ends; a dimerising Fc or GST)
chain: EVQLVESGGGEVQPGGSLRLSCAASGSIFSINAMGWYRQAPGKQRELVAGFTGDTNTIYAESVKGRFTISRDNAKNTVYLQMSSLRAEDTAVYYCAADVQLFSRDYEFYWGQGTLVTVKP
For B1, the koff was 0.000267 s⁻¹ and the kon was 215000 M⁻¹ s⁻¹.
